Measured values: US7657385B2

Biological target: CD81-LEL (large extracellular loop of human CD81, amino acids 113-201) (human)
Experiment: X-ray crystal structure; dimer in the asymmetric unit

subunit interface: 986 Å^2
Substance: CD81-LEL (large extracellular loop of human CD81, amino acids 113-201) (receptor)
